The values below come from patent publication US20240358762A1 (UNIVERSITY OF PITTSBURGH OF THE COMMONWEALTH SYSTEM OF …, published 2024).

The labels stand for the following.
T1: human PRTG polypeptide (human, UniProt Q2VWP7 36-952, limits assumed)
T1 construct: also called protogenin
T1 sequence (looked up): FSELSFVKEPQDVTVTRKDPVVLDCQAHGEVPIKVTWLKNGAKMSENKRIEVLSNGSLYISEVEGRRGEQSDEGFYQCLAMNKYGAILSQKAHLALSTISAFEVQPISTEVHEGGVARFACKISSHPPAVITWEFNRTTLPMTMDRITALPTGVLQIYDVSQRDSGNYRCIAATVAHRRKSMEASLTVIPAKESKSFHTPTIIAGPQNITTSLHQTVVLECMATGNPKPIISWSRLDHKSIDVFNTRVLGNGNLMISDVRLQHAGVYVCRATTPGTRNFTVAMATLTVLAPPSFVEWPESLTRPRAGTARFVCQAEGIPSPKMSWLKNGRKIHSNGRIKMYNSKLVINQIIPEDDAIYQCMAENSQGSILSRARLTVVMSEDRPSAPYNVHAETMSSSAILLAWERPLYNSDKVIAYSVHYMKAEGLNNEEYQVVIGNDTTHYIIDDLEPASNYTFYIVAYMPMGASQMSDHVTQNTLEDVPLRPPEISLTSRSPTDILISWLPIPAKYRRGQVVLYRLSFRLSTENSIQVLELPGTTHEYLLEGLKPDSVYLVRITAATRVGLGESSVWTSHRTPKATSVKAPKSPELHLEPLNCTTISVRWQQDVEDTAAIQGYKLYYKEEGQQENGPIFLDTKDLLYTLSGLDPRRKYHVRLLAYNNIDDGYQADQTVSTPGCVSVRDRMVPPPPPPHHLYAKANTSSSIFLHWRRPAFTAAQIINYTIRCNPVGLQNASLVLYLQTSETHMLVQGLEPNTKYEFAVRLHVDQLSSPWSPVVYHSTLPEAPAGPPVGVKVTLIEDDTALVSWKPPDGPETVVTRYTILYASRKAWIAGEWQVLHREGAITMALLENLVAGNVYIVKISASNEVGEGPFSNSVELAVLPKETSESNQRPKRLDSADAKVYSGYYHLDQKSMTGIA

B1: VH domain Clone #7 (other)
VH: EVQLVESGGGLVQPGGSLRLSCAASGFTFSNAWMSWVRQAPGKGLEWIGRIYSSGSTNYNPSLKSRVTISRDNSKNTLYLQMNSLRAEDTALYYCASTYRSSSGEYFQHWGQGTLVTVSSS
notes: also called #7 (VH domain)
B2: VH domain Clone #8 (other)
VH: EVQLVESGGGLVQPGGSLRLSCKGSGFTFSNYWMHWVRQAPGKGLEWVSAISGSGGSTYYADSVKGRFTISRDNSKNTLYLQMNSLRAEDTATYYCATLCRGDSCYSPFDPWGQGTLVTVSSS
notes: also called #8 (VH domain)
B3: VH domain Clone #2 (other)
VH: EVQLVESGGGLVQPGGSLRLSCKGSGFTFSNFAMNWVRQAPGKGLEWVSAISGSGGSTYYADSVKGRFTISRDNSKNTLYLQMNSLRAEDTALYYCARGPDYYGSGSHGWFDPWGQGTLVTVSS
notes: also called #2 (VH domain)
B4: VH domain Clone #1 (other)
VH: EVQLVESGGGLVQPGGSLRLSCKASGFTVSSNYMHWVRQAPGKGLEWIGGINHSGRTNYKSSLKSRVTISRDNSKNTLYLQMNSLRAEDTAVYYCARLPPSRDGYNYADYWGQGTLVTVSS
notes: also called #1 (VH domain)
B5: VH domain Clone #3 (other)
VH: EVQLVESGGGLVQPGGSLRLSCAASYFDFDSYEMSWVRQAPGKALEWLGRIYTSGTTNYNPSLKSRVTISRDNSKNTLYLQMNSLRAEDTATYYCAMTGPYYDSSGYYPARHAEYFQHWGQGTLVTVSS
notes: also called #3 (VH domain)
B6: VH domain Clone #6 (other)
VH: EVQLVESGGGLVQPGGSLRLSCAASGFTFSNYGMSWVRQAPGQRLEWIGWIDTKTGNPRYGQGFTGRFTISRDNSKNTLYLQMNSLRAEDTATYYCVSTVPNGVEYFQHWGQGTLVTVSS
notes: also called #6 (VH domain)
B7: VH domain Clone #5 (other)
VH: EVQLVESGGGLVQPGGSLRLSCKGSGFNFGDYAMHWVRQAPGKALEWIGYIYNTGSTKYNPSLKSLVTISRDNSKNTLYLQMNSLRAEDTATYYCVSTVTNGVEYFQHWGQGTLVTVSS
notes: also called #5 (VH domain)
B8: VH domain Clone #4 (other)
VH: EVQLVESGGGLVQPGGSLRLSCAASGSAFGSHWMHWVRQAPGKGLEWVSSISSGGSSIYYADSVKGRFTISRDNSKNTLYLQMNSLRAEDTAVYYCARVRRDDDSNYRPFDVWGQGTMVTVSS
notes: also called #4 (VH domain)

The assay concerns the target T1, human PRTG polypeptide. Description: ELISA and SPR (Blitz) as stated; which method gave the EC50 is not said. As to the method: Binding affinity and specificity to a human PRTG polypeptide were tested using an ELISA and SPR (Blitz). […] Clone #1 was determined to bind to the human PRTG fibronectin type-III 1 domain; clone #2 was determined to bind to the human PRTG fibronectin type-III 3 domain; and clones #3, #4, #5, #6, #7, and #8 were determined to bind to the human PRTG fibronectin type-III 5 domain. Clone #1 binding to the human PRTG fibronectin type-III 1 domain was determined by ELISA. Clone #2 binding was based on the panning being performed using a PRTG fibronectin type-III 3 domain; and clones #3, #4, #5, #6, #7, and #8 binding was based on the panning being performed using a PRTG fibronectin type-III 5 domain.
In general terms: In an ELISA, binding on a coated surface is turned into a signal by an enzyme label.
For the molecule B1, the EC50 – broadly, the concentration needed to bring the measured effect to its halfway point – came to 0.29 nM.

The molecule B2 gave a half-maximal effective concentration (EC50) of 0.81 nM.

Consider B3, for which a half-maximal response (EC50) required 30 nM.

The molecule B4 yielded an EC50 of 2.8 nM.

Consider B5, for which it took 0.75 nM to reach a half-maximal effect (EC50).

In the case of B6, the midpoint of the response, the EC50, lay at 6.25 nM.

On to B7, for which a half-maximal response (EC50) required 1.35 nM.

Regarding B8, the EC50 is 0.9 nM.
